Literature values as cited in publication PMC2964873.

Biological target: plectin-1 95-117 (Homo sapiens) (UniProt Q15149)
Sequence of UniProt Q15149 (Q15149 95-117): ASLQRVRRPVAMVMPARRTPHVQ

Siah (from UniProt Q8IUQ4)
Kd: 29 nM
